B1: EGLN1 (protein, UniProt Q9GZT9 2-426, looked up)
Egl nine homolog 1: ANDSGGPGGPSPSERDRQYCELCGKMENLLRCSRCRSSFYCCKEHQRQDWKKHKLVCQGSEGALGHGVGPHQHSGPAPPAAVPPPRAGAREPRKAAARRDNASGDAAKGKVKAKPPADPAAAASPCRAAAGGQGSAVAAEAEPGKEEPPARSSLFQEKANLYPPSNTPGDALSPGGGLRPNGQTKPLPALKLALEYIVPCMNKHGICVVDDFLGKETGQQIGDEVRALHDTGKFTDGQLVSQKSDSSKDIRGDKITWIEGKEPGCETIGLLMSSMDDLIRHCNGKLGSYKINGRTKAMVACYPGNGTGYVRHVDNPNGDGRCVTCIYYLNKDWDAKVSGGILRIFPEGKAQFADIEPKFDRLLFFWSDRRNPHEVQPAYATRYAITVWYFDADERARAKVKYLTGEKGVRVELNKPSDSVGKDVF
B2: CLEC4D (protein, UniProt Q8WXI8 1-215, looked up)
C-type lectin domain family 4 …: MGLEKPQSKLEGGMHPQLIPSVIAVVFILLLSVCFIASCLVTHHNFSRCKRGTGVHKLEHHAKLKCIKEKSELKSAEGSTWNCCPIDWRAFQSNCYFPLTDNKTWAESERNCSGMGAHLMTISTEAEQNFIIQFLDRRLSYFLGLRDENAKGQWRWVDQTPFNPRRVFWHKNEPDNSQGENCVVLVYNQDKWAWNDVPCNFEASRICKIPGTTLN
B3: SIGLEC6 (protein, UniProt O43699 27-453, looked up)
Sialic acid-binding Ig-like …: QERRFQLEGPESLTVQEGLCVLVPCRLPTTLPASYYGYGYWFLEGADVPVATNDPDEEVQEETRGRFHLLWDPRRKNCSLSIRDARRRDNAAYFFRLKSKWMKYGYTSSKLSVRVMALTHRPNISIPGTLESGHPSNLTCSVPWVCEQGTPPIFSWMSAAPTSLGPRTTQSSVLTITPRPQDHSTNLTCQVTFPGAGVTMERTIQLNVSYAPQKVAISIFQGNSAAFKILQNTSSLPVLEGQALRLLCDADGNPPAHLSWFQGFPALNATPISNTGVLELPQVGSAEEGDFTCRAQHPLGSLQISLSLFVHWKPEGRAGGVLGAVWGASITTLVFLCVCFIFRVKTRRKKAAQPVQNTDDVNPVMVSGSRGHQHQFQTGIVSDHPAEAGPISEDEQELHYAVLHFHKVQPQEPKVTDTEYSEIKIHK
B4: SH2B3 (protein, UniProt Q9UQQ2 1-575, looked up)
SH2B adapter protein 3: MNGPALQPSSPSSAPSASPAAAPRGWSEFCELHAVAAARELARQYWLFAREHPQHAPLRAELVSLQFTDLFQRYFCREVRDGRAPGRDYRDTGRGPPAKAEASPEPGPGPAAPGLPKARSSEELAPPRPPGPCSFQHFRRSLRHIFRRRSAGELPAAHTAAAPGTPGEAAETPARPGLAKKFLPWSLAREPPPEALKEAVLRYSLADEASMDSGARWQRGRLALRRAPGPDGPDRVLELFDPPKSSRPKLQAACSSIQEVRWCTRLEMPDNLYTFVLKVKDRTDIIFEVGDEQQLNSWMAELSECTGRGLESTEAEMHIPSALEPSTSSSPRGSTDSLNQGASPGGLLDPACQKTDHFLSCYPWFHGPISRVKAAQLVQLQGPDAHGVFLVRQSETRRGEYVLTFNFQGIAKHLRLSLTERGQCRVQHLHFPSVVDMLHHFQRSPIPLECGAACDVRLSSYVVVVSQPPGSCNTVLFPFSLPHWDSESLPHWGSELGLPHLSSSGCPRGLSPEGLPGRSSPPEQIFHLVPSPEELANSLQHLEHEPVNRARDSDYEMDSSSRSHLRAIDNQYTPL
B5: WASF1 (protein, UniProt Q92558 1-559, looked up)
Actin-binding protein WASF1: MPLVKRNIDPRHLCHTALPRGIKNELECVTNISLANIIRQLSSLSKYAEDIFGELFNEAHSFSFRVNSLQERVDRLSVSVTQLDPKEEELSLQDITMRKAFRSSTIQDQQLFDRKTLPIPLQETYDVCEQPPPLNILTPYRDDGKEGLKFYTNPSYFFDLWKEKMLQDTEDKRKEKRKQKQKNLDRPHEPEKVPRAPHDRRREWQKLAQGPELAEDDANLLHKHIEVANGPASHFETRPQTYVDHMDGSYSLSALPFSQMSELLTRAEERVLVRPHEPPPPPPMHGAGDAKPIPTCISSATGLIENRPQSPATGRTPVFVSPTPPPPPPPLPSALSTSSLRASMTSTPPPPVPPPPPPPATALQAPAVPPPPAPLQIAPGVLHPAPPPIAPPLVQPSPPVARAAPVCETVPVHPLPQGEVQGLPPPPPPPPLPPPGIRPSSPVTVTALAHPPSGLHPTPSTAPGPHVPLMPPSPPSQVIPASEPKRHPSTLPVISDARSVLLEAIRKGIQLRKVEEQREQEAKHERIENDVATILSRRIAVEYSDSEDDSEFDEVDWLE
B6: GCNT1 (protein, UniProt Q02742 1-428, looked up)
Beta-1,3-galactosyl-O-glycosyl …: MLRTLLRRRLFSYPTKYYFMVLVLSLITFSVLRIHQKPEFVSVRHLELAGENPSSDINCTKVLQGDVNEIQKVKLEILTVKFKKRPRWTPDDYINMTSDCSSFIKRRKYIVEPLSKEEAEFPIAYSIVVHHKIEMLDRLLRAIYMPQNFYCIHVDTKSEDSYLAAVMGIASCFSNVFVASRLESVVYASWSRVQADLNCMKDLYAMSANWKYLINLCGMDFPIKTNLEIVRKLKLLMGENNLETERMPSHKEERWKKRYEVVNGKLTNTGTVKMLPPLETPLFSGSAYFVVSREYVGYVLQNEKIQKLMEWAQDTYSPDEYLWATIQRIPEVPGSLPASHKYDLSDMQAVARFVKWQYFEGDVSKGAPYPPCDGVHVRSVCIFGAGDLNWMLRKHHLFANKFDVDVDLFAIQCLDEHLRHKALETLKH
B7: STK4 (protein, UniProt Q13043 1-487, looked up)
Serine/threonine-protein …: METVQLRNPPRRQLKKLDEDSLTKQPEEVFDVLEKLGEGSYGSVYKAIHKETGQIVAIKQVPVESDLQEIIKEISIMQQCDSPHVVKYYGSYFKNTDLWIVMEYCGAGSVSDIIRLRNKTLTEDEIATILQSTLKGLEYLHFMRKIHRDIKAGNILLNTEGHAKLADFGVAGQLTDTMAKRNTVIGTPFWMAPEVIQEIGYNCVADIWSLGITAIEMAEGKPPYADIHPMRAIFMIPTNPPPTFRKPELWSDNFTDFVKQCLVKSPEQRATATQLLQHPFVRSAKGVSILRDLINEAMDVKLKRQESQQREVDQDDEENSEEDEMDSGTMVRAVGDEMGTVRVASTMTDGANTMIEHDDTLPSQLGTMVINAEDEEEEGTMKRRDETMQPAKPSFLEYFEQKEKENQINSFGKSVPGPLKNSSDWKIPQDGDYEFLKSWTVEDLQKRLLALDPMMEQEIEEIRQKYQSKRQPILDAIEAKKRRQQNF
B8: TYMP (protein, UniProt P19971 11-482, looked up)
Thymidine phosphorylase: APPAPGDFSGEGSQGLPDPSPEPKQLPELIRMKRDGGRLSEADIRGFVAAVVNGSAQGAQIGAMLMAIRLRGMDLEETSVLTQALAQSGQQLEWPEAWRQQLVDKHSTGGVGDKVSLVLAPALAACGCKVPMISGRGLGHTGGTLDKLESIPGFNVIQSPEQMQVLLDQAGCCIVGQSEQLVPADGILYAARDVTATVDSLPLITASILSKKLVEGLSALVVDVKFGGAAVFPNQEQARELAKTLVGVGASLGLRVAAALTAMDKPLGRCVGHALEVEEALLCMDGAGPPDLRDLVTTLGGALLWLSGHAGTQAQGAARVAAALDDGSALGRFERMLAAQGVDPGLARALCSGSPAERRQLLPRAREQEELLAPADGTVELVRALPLALVLHELGAGRSRAGEPLRLGVGAELLVDVGQRLRRGTPWLRVHRDGPALSGPQSRALQEALVLSDRAPFAAPSPFAELVLPPQQ
B9: SNAP29 (protein, UniProt O95721 1-258, looked up)
Synaptosomal-associated …: MSAYPKSYNPFDDDGEDEGARPAPWRDARDLPDGPDAPADRQQYLRQEVLRRAEATAASTSRSLALMYESEKVGVASSEELARQRGVLERTEKMVDKMDQDLKISQKHINSIKSVFGGLVNYFKSKPVETPPEQNGTLTSQPNNRLKEAISTSKEQEAKYQASHPNLRKLDDTDPVPRGAGSAMSTDAYPKNPHLRAYHQKIDSNLDELSMGLGRLKDIALGMQTEIEEQDDILDRLTTKVDKLDVNIKSTERKVRQL
B10: TNFRSF11A (protein, UniProt Q9Y6Q6 30-616, looked up)
Tumor necrosis factor …: IAPPCTSEKHYEHLGRCCNKCEPGKYMSSKCTTTSDSVCLPCGPDEYLDSWNEEDKCLLHKVCDTGKALVAVVAGNSTTPRRCACTAGYHWSQDCECCRRNTECAPGLGAQHPLQLNKDTVCKPCLAGYFSDAFSSTDKCRPWTNCTFLGKRVEHHGTEKSDAVCSSSLPARKPPNEPHVYLPGLIILLLFASVALVAAIIFGVCYRKKGKALTANLWHWINEACGRLSGDKESSGDSCVSTHTANFGQQGACEGVLLLTLEEKTFPEDMCYPDQGGVCQGTCVGGGPYAQGEDARMLSLVSKTEIEEDSFRQMPTEDEYMDRPSQPTDQLLFLTEPGSKSTPPFSEPLEVGENDSLSQCFTGTQSTVGSESCNCTEPLCRTDWTPMSSENYLQKEVDSGHCPHWAASPSPNWADVCTGCRNPPGEDCEPLVGSPKRGPLPQCAYGMGLPPEEEASRTEARDQPEDGADGRLPSSARAGAGSGSSPGGQSPASGNVTGNSNSTFISSGQVMNFKGDIIVVYVSQTSQEGAAAAAEPMGRPVQEETLARRDSFAGNGPRFPDPCGGPEGLREPEKASRPVQEQGGAKA
B11: gal-8 (protein, UniProt O00214 1-317, looked up)
Galectin-8: MMLSLNNLQNIIYNPVIPFVGTIPDQLDPGTLIVIRGHVPSDADRFQVDLQNGSSMKPRADVAFHFNPRFKRAGCIVCNTLINEKWGREEITYDTPFKREKSFEIVIMVLKDKFQVAVNGKHTLLYGHRIGPEKIDTLGIYGKVNIHSIGFSFSSDLQSTQASSLELTEISRENVPKSGTPQLRLPFAARLNTPMGPGRTVVVKGEVNANAKSFNVDLLAGKSKDIALHLNPRLNIKAFVRNSFLQESWGEEERNITSFPFSPGMYFEMIIYCDVREFKVAVNGVHSLEYKHRFKELSSIDTLEINGDIHLLEVRSW

tested on: plasma proteins; assay: Plasma proteins modulated between baseline and day 28 in responders (CR, VGPR, PR; n = 19), Example 6 (Table 13); type: in vivo, human; conditions: plasma protein (OLINK NPX); responders (CR, VGPR, PR; n = 19); itacitinib 200 mg or 300 mg QD with corticosteroids; day 28 vs baseline
Method: Due to the limited sample size, steroid-naive (N=10) and steroid-refractory (N=18) patients were combined for further analysis. Broad proteomic analysis of over 1000 proteins was conducted by OLINK Proteomics (Watertown, MA) using a proximity extension assay as described by the manufacturer. Data are presented as normalized protein expression (NPX) in log 2 scale. Statistical differences were evaluated using unpaired and paired t tests, one-way […] (ANOVA), and Pearson Correlation. Significance was conferred when P<0.05.
Longitudinal differences in protein expression were analyzed by evaluating plasma samples from baseline/screening and day 28.

Row | Molecule | Fold Change, Decreased Expression from Baseline to Day 28
1 | B1 | −1.3184
2 | B2 | −1.7084
3 | B3 | −1.9024
4 | B4 | −1.7273
5 | B5 | −1.5354
6 | B6 | −1.3034
7 | B7 | −1.8393
8 | B8 | −1.7313
9 | B9 | −1.6325
10 | B10 | −1.3519
11 | B11 | −1.3154
